Experimental data from publication PMC7674511.

Target: Pro-LC3B, Q9GZQ8
Test: fluorescence anisotropy
Details: chain shown with the change; FITC-labeled peptide 1 μM; read at the highest Pro-LC3B concentration plotted (about 50 μM); parent: est. 0.071; read off a plot

response: -0.002
B1: BAG6 LIR1 peptide (residues 124-143), P46379-2 Y132A; V135A (peptide)
chain: VHDRNANSAVMAGTFNLPSD
